Assay [1] deals with T1, pH4.0-treated TTR (human, UniProt P02766 21-147). The assay is described as follows: sandwich ELISA (pH4-TTR). (In general: An ELISA detects its analyte on a solid surface through an enzyme-linked reagent.)
Assay [2] deals with T1, pH4.0-treated TTR. The assay is described as follows: ELISA, pH4-TTR captured on anti-His coated plate.
Assay [3] addresses T1, pH4.0-treated TTR. Nature of the assay: sandwich ELISA on pH4-TTR (the table prints 14.6 for 6C1).
Assay [4] deals with recombinant human TTR F87M/L110M (human, UniProt P02766 21-147). The assay is described as follows: SPR, mAb captured on anti-mouse IgG chip, TTR F87M/L110M as analyte. (In general: SPR reads the build-up and loss of mass on a sensor chip optically.)

As usually defined, the Kd is the free concentration of one partner at which half of the binding sites on the other are occupied at equilibrium, for simple one-to-one binding. A word on the koff: it is the rate constant with which the complex falls apart. What is called kon is the second-order rate constant of association.

B1: 6C1 (antibody, V domains shown)
VH: EVQLVESGGGLVQPGGSLKLSCAASGFTFSNYYMSWVRQTPEKRLEWVAYISIDGNNIYHPDSVKGRFTISRDNAKNTLYLQMSSLKSEDTAMYYCARDSDYGYFDVWGTGTTVTVSS
VL: DVLMTQTPLSLPVSLGDQASISCRSSQSIVHSNGNTYLEWYLQKRGQSPKLLIYKVSKRFSGVPDRFSGSGSGTDFILKISRVEAEDLGVYYCFQGSHVPLTFGGGTKLELK
On to B1, for which the Kd in assay [1] was found to be 14.6 nM; in assay [2] it was 16 nM; in assay [3], 14.5 nM; in assay [4], 9.01 nM. Besides, in assay [4], the koff worked out at 0.000415 s⁻¹. In addition, the kon in assay [4] worked out at 46100 M⁻¹ s⁻¹.

The values are drawn from patent US20170015737A1 (published 2017).
